Measured values reported in US20160122421A1.
Ends that are not written are not given here.

Target: humanized variant of IPN002 (hu-IPN002)
Assay: competition ELISA; competitor: biotin-Tau 13-24 on hu-IPN002

- IC50 (read off the curve): 400 nM
Binder: DHAGTYGLGDRK (also: biotinylated, position not given here, also used non-biotinylated) [Peptide 1 (Tau amino acids 13-24)]
